Primed or numbered codes have the meaning given here. Where no end group is shown, it is not given here. 5FAM′ = 5-carboxyfluorescein; Ahx = NCCCCCC(=O)O
Experiments:
HEK293T cells = test: Global translation assay; format: cell-based; conditions: 50 μg/ml, compared to DMSO control, three independent replicates
Procedure: HEK293T cells (ATCC) were cultured in Dulbecco’s Modified Eagle Medium supplemented with 10% fetal bovine serum and 1% penicillin/streptomycin. These cells were maintained at 37 °C/5% CO2 in a humidified incubator. Cells were negative for mycoplasma contamination (MicroSeq; ThermoFisher Scientific) at the start of the experiments, and they were used without further authentication.
The global translation assay (Abcam; ab273286) was used to measure protein synthesis according to the manufacturer’s specifications. Briefly, in this method, O-propargyl-puromycin is used to trap actively translating ribosomes, followed by addition of a fluorescent Click probe, such that suppression of translational is measured as a decrease in fluorescence. HEK293T cells or HEK293T cells overexpressing FLAG-PP5 were cultured as above. Cells were incubated with the supplied protein label reagent and incubated for 24 h, after which the cells were washed with culture media and fixed/permeabilized for 15 min in the dark. Click reactions were carried out for 30 min, and the plate fluorescence measured at Ex/Em 494/521 nm in a SpectraMax M5 multimode plate reader.

full-length PP5 [1] = biological target: T1, full-length PP5 (Homo sapiens, UniProt P53041); test: FP competition studies; format: binding; conditions: for affinity relative to natural MEEVD in competition FP: acetylated pentapeptides competing with Hsp90 tracer, n = 4
T1 construct: His-tag with TEV cleavage site (N, cleaved yes); made in house; host or cells: Escherichia coli BL21 (DE3)
T1 sequence (P53041 1-499): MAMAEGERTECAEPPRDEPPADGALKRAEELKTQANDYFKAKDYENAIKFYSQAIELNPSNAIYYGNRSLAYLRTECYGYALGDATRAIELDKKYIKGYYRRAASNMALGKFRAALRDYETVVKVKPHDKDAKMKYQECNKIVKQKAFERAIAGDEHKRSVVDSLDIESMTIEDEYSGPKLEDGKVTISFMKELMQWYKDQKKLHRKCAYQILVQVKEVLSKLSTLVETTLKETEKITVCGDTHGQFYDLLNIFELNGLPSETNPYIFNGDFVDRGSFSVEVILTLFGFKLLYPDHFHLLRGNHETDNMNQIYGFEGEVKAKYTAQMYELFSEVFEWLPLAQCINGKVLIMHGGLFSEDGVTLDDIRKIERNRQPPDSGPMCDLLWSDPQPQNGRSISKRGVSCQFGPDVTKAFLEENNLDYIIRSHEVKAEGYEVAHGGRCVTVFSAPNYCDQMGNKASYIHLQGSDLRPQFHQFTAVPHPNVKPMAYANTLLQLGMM
Procedure: (§1) These probes were stored as 10 mM DMSO stocks at −30 °C. […] Each well received PP5 (5 μl) from a 3-fold dilution series prepared using the assay buffer. […] The plate was shielded from light and allowed to incubate at room temperature for 15 min, a duration determined to reach equilibrium during assay development. All experiments were conducted in 384-well, black, low-volume, round-bottom plates (Corning; catalog number = 4511). […] Data analysis was carried out using GraphPad Prism 6.
Samples were incubated for 5 min prior to measurements. Results were analyzed as above.

[2] = biological target: protein phosphatase 5 (PP5), human, full-length (human) (UniProt P53041); test: fluorescence polarisation; competition (Fig. 1B, C, E, F): unlabelled peptide varied, PP5 at a concentration equivalent to the Kd, tracer 20 nM (tracer not named for these panels), 5 min
full-length PP5 [3] = biological target: T1, full-length PP5; test: Fluorescence polarization (FP) saturation binding of fluorescent tracers; conditions: for direct binding of tracer relative to natural sequence: FP direct binding, n = 4
Procedure: as §1

PP5 = biological target: T2, PP5 (Homo sapiens, UniProt P53041); test: pNPP colorimetric phosphatase assay; format: biochemical; conditions: peptide 100 μM
T2 construct: His-tag with TEV cleavage site (N, cleaved yes); made in house; host or cells: Escherichia coli BL21 (DE3)
T2 sequence (P53041 1-499): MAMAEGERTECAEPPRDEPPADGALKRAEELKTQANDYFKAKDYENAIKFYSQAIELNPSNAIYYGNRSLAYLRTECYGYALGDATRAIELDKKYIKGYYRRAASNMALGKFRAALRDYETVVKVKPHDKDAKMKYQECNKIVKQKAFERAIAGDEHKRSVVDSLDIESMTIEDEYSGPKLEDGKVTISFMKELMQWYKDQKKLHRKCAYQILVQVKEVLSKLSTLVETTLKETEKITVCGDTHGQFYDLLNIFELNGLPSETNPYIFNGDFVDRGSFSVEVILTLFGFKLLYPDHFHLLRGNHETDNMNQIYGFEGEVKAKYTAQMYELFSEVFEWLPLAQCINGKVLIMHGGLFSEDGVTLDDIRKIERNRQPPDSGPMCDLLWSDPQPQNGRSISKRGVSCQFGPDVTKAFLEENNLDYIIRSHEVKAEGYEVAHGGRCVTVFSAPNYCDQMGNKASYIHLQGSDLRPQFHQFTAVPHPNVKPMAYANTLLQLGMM
Procedure: To measure PP5’s enzyme activity, pNPP was used as substrate, as previously described ([24], [42]). Briefly, purified PP5 (1 μM) was incubated with peptides (100 μM) in 40 mM Hepes, 20 mM KCl, 5 mM MnCl2, and 1 mM DTT, pH 7.5 at 20 °C in 96-well microtiter plates (total volume 50 μl). Reactions were then initiated by addition of the pNPP substrate at concentrations from 0 to 60 mM. After 30 min, reactions were quenched with 2N NaOH (100 μl), and the release of p-nitrophenol was recorded at 410 nm (ε = 15,100 M − 1 cm−1) on a Molecular Devices M5 plate reader. Enzyme parameters (e.g., Km, kcat) were calculated using the Michaelis–Menten equation in Graphpad Prism 6.

[4] = biological target: T3, protein phosphatase 5 (PP5), human, full-length (human, UniProt P53041 1-499); test: fluorescence polarisation; saturation binding: tracer 20 nM, 3-fold dilution series of PP5; 50 mM Hepes, 75 mM NaCl, 0.001% Triton X-100, pH 7.4; room temperature, 15 min; conditions: both partners purified
T3 construct: protein phosphatase 5 (PP5), human, full-length, expressed from a pMCSG7 vector; source: E. coli BL21 (DE3), purified (Ni-NTA, TEV cleavage, size-exclusion chromatography); not shown: His-tag, N-terminal, cleaved
T3 sequence (looked up): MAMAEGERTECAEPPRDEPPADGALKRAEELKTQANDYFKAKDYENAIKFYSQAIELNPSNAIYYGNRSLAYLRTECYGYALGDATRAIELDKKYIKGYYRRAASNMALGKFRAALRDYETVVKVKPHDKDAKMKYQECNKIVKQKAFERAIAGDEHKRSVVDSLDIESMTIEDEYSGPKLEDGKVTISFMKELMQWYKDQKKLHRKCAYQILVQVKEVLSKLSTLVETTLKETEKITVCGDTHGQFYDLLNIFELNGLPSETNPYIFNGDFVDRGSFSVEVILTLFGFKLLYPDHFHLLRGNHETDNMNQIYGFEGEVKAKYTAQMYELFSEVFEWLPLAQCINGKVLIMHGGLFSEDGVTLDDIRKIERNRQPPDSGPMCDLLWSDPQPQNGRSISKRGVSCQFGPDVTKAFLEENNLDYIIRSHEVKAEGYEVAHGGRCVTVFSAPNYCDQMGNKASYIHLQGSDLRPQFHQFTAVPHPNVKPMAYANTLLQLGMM

[5] = biological target: T3, protein phosphatase 5 (PP5), human, …; test: cell-based or functional assay
[6] = biological target: T4, protein phosphatase 5 (PP5), human, full-length (human, UniProt P53041 1-499); test: FP
T4 chain: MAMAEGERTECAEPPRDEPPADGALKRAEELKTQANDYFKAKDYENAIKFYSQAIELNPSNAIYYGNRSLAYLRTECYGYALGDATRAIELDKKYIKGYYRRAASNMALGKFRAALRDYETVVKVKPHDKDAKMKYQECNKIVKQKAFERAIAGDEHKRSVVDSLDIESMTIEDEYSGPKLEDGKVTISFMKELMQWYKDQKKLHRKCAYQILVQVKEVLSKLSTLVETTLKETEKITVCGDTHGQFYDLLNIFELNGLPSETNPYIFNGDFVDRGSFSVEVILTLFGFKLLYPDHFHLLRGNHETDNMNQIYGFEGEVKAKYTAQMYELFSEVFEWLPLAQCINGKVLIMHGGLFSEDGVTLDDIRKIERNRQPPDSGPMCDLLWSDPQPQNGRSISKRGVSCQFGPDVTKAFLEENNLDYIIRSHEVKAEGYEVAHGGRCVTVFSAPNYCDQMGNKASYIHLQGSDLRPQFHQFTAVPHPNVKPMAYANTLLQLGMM

[7] = biological target: T3, protein phosphatase 5 (PP5), human, …; test: fluorescence polarisation; competition with the Hsp90 tracer (Fig. 2C): PP5 at a concentration equivalent to the Kd, tracer 20 nM, 5 min; conditions: both partners purified

Question: Which decrease in translation (HEK293T cells) does the source give for `C[C@@H]1C[C@@H]([C@H](O)CC2CC(=O)NC(=O)C2)C(=O)[C@@H](C)C1` [cycloheximide] here?
Answer: 40%

Question: For “WEEVD [optimized acetylated pentapeptide]”, which “affinity relative to natural MEEVD in competition FP” value (full-length PP5 [1]) is on record?
Answer: tighter affinity than the natural MEEVD

Question: With “Hsp70 peptide with the P5 isoleucine replaced by alanine” as the molecule, how does the Ki [2] read?
Answer: 13.6 µM

Question: For 5FAM-AHX-WDDPD, which “direct binding of tracer relative to natural sequence” value (full-length PP5 [3]) is on record?
Answer: bound tighter than the natural sequence

Question: For LSLLA, which “competition with ELP1 tracer for binding to PP5” value (full-length PP5 [1]; tracer 5FAM-AHX-LSLLD, unlabeled peptide, three independent experiments in technical triplicates) is on record?
Answer: completely suppressed binding

Question: What about the “effect on PP5 enzyme activity” value (PP5; DMSO 1%) of the same molecule?
Answer: did not

Question: How did the “affinity relative to natural MEEVD in competition FP” value (full-length PP5 [1]) turn out when “WDDLD [optimized acetylated pentapeptide]” was run?
Answer: tighter affinity than the natural MEEVD

Question: Which “direct binding of tracer relative to natural sequence” value (full-length PP5 [3]) does the source give for 5FAM-AHX-WDDID here?
Answer: bound tighter than the natural sequence

Question: How did the Ki (full-length PP5 [1]; read-out: Ki, FP competition (truncations and alanine scan)) turn out when “Ac-GSGPTAEEVD [Hsp70 peptide, P5 isoleucine mutation]” was run?
Answer: ~13.6 µM

Question: How did the Kd (full-length PP5 [3]; restates Fig. 5B, measured with tracer 5FAM-AHX-LSLLD, read-out: Kd of ELP1 C-terminal motif for PP5's TPR domain (restated)) turn out when LSLLD [LSLLD] was run?
Answer: ~4 µM

Question: And the “effect on Km of PP5” value (PP5; pNPP substrate)?
Answer: both the kcat and Km were improved

B1: ELP1 tracer 5FAM-AHX-LSLLD (peptide)
peptide: {5FAM′-Ahx}-LSLLD
notes: C-terminal five amino acids of elongator acetyltransferase complex subunit 1 (ELP1; IKBKAP); also called LSLLD tracer; source: synthetic peptide
Question: For B1, which Kd [4] is on record?
Answer: 4400 ± 800 nM

B2: fluorescent tracer of the DDCP C-terminal sequence WKPVD (peptide)
peptide: WKPVD
modifications: also: fluorescent label (tracer), position not given here
notes: the label DDCP could not be tied to an entry; Probably 5FAM-AHX-labelled like the ELP1 tracer; also called DDCP tracer; source: synthetic peptide
Question: With B2 as the molecule, how does the Kd [4] read?
Answer: > 100000 nM

Question: With DSDSD (fluorescent label (tracer)) [fluorescent tracer of the U520 C-terminal five amino acids] as the molecule, how does the Kd [4] read?
Answer: > 100000 nM

Question: For TMYFA (fluorescent label (tracer)) [fluorescent tracer of the AGO1 C-terminal five amino acids (negative control)], which Kd [4] is on record?
Answer: > 100000 nM

Question: For Ac-WDDVD [optimized acetylated pentapeptide WDDVD], which “kcat of PP5 phosphatase activity on pNPP with peptide (100 μM); 2.5-fold” value [5] is on record?
Answer: 0.24 s⁻¹

Question: What about the Ki [6] of the same molecule?
Answer: 30 nM

B3: fluorescent tracer 5FAM-AHX-WDDID (peptide)
peptide: {5FAM′-Ahx}-WDDID
notes: also called WDDID tracer; source: synthetic peptide
Question: Does B3 bind [4]?
Answer: binds

B4: optimized acetylated pentapeptide WDDPD (peptide)
peptide: Ac-WDDPD
notes: optimized EEVD-like pentapeptide from the PSSCL screen; source: synthetic peptide
Question: For B4, which Ki [6] is on record?
Answer: 40 nM

Question: Does B4 bind [7]?
Answer: binds

B5: fluorescent tracer 5FAM-AHX-WDDPD (peptide)
peptide: {5FAM′-Ahx}-WDDPD
notes: also called WDDPD tracer; source: synthetic peptide
Question: Does B5 bind [4]?
Answer: binds

B6: optimized acetylated pentapeptide WDDLD (peptide)
peptide: Ac-WDDLD
notes: as for B4
Question: Does B6 bind [7]?
Answer: binds

B7: optimized acetylated pentapeptide WDDID (peptide)
peptide: Ac-WDDID
notes: as for B4
Question: How did the Ki [6] turn out when B7 was run?
Answer: 60 nM

Question: Does B7 bind [7]?
Answer: binds

Question: How did the “kcat/Km of PP5 phosphatase activity on pNPP with peptide (100 μM); 0.49 μM^−1sec^−1 without peptide” value [5] turn out when LSLLD [ELP1 C-terminal pentapeptide LSLLD (unlabelled)] was run?
Answer: 1.28 μM^−1sec^−1

B8: fluorescent tracer 5FAM-AHX-WDDVD (peptide)
peptide: {5FAM′-Ahx}-WDDVD
notes: also called WDDVD tracer; source: synthetic peptide
Question: How did the Kd [4] turn out when B8 was run?
Answer: 17 ± 10 nM

B9: Hsp70 tracer 5FAM-AHX-IEEVD (peptide)
peptide: {5FAM′-Ahx}-IEEVD
notes: also called Hsp70 IEEVD tracer; source: synthetic peptide, custom synthesized by GenScript
Question: Which Kd [4] does the source give for B9 here?
Answer: 941 ± 70 nM

B10: fluorescent tracer 5FAM-AHX-WEEVD (peptide)
peptide: {5FAM′-Ahx}-WEEVD
notes: also called WEEVD tracer; source: synthetic peptide
Question: B10 was tested. Which Kd [4] did it give?
Answer: 15 ± 10 nM
